Where “and” joins values, the source holds several entries; their conditions need not be identical. Identical values can stand only once.
B1: CEP250_(11.4) (residues 2,134 to 2,231) (domain or fragment)
chain: MEEQSLKLDSLEPRLQRELERLQAALRQTEAREIEWREKAQDLALSLAQTKASVSSLQEVAMFLQASVLERDSEQQRLQDELELTRRALEKERLHSPG
B2: recombinant CEP250_(29.2) (residues 1,981 to 2,281) (domain or fragment)
chain: EQHLLEQAELSRSLEASTATLQASLDACQAHSRQLEEALRIQEGEIQDQDLRYQEDVQQLQQALAQRDEELRHQQEREQLLEKSLAQRVQENMIQEKQNLGQEREEEEIRGLHQSVRELQLTLAQKEQEILELRETQQRNNLEALPHSHKTSPMEEQSLKLDSLEPRLQRELERLQAALRQTEAREIEWREKAQDLALSLAQTKASVSSLQEVAMFLQASVLERDSEQQRLQDELELTRRALEKERLHSPGATSTAELGSRGEQGVQLGEVSGVEAEPSPDGMEKQSWRQRLEHLQQAVAR

Molecular target: N-terminal AVI-tagged and biotinylated FKBP12 (human, UniProt P62942 1-108, biotin (biotinylated AVI tag))
Sequence (P62942 whole entry): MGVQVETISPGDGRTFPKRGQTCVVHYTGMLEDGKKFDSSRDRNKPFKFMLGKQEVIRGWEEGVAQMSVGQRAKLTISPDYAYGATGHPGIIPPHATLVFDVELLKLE
Test: SPR

Binder | Kd
B1 | 32.5 nM and 32.7 nM and 41.2 nM
B2 | 37.6 nM and 23.4 nM and 57.7 nM

— publication PMC7382241 (2020)
